Experimental data published in US20170022545.

target: L7Ae (UniProt O29494); assay: not given; conditions: RNA microarray, 5 nM L7Ae
Sequence (O29494 whole entry): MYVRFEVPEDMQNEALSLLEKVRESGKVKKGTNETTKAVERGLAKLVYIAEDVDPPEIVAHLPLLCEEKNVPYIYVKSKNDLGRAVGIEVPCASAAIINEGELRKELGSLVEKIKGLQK

In order of falling binding signal (log2 Cy3-Cy5+20):
1. mmu-mir-466p loop  13.3
2. hsa-mir-363 loop  12.5
3. mmu-mir-6995 loop  12.2
4. mmu-mir-7061 loop  11.8
5. hsa-mir-204 loop  11.7
6. mmu-mir-6338 loop  11.6
7. hsa-mir-6834 loop  11.5
8. mmu-mir-7220 loop  11.5
9. hsa-mir-16-2 loop  11.5
10. hsa-mir-6773 loop  11.3
11. hsa-mir-4479 loop  11.3
12. hsa-mir-1-2 loop  11.3
13. hsa-mir-34a loop  11.3

target: T1, Lin28A (UniProt Q9H9Z2); assay: pulldown; conditions: TALON beads, 4 C
T1 sequence: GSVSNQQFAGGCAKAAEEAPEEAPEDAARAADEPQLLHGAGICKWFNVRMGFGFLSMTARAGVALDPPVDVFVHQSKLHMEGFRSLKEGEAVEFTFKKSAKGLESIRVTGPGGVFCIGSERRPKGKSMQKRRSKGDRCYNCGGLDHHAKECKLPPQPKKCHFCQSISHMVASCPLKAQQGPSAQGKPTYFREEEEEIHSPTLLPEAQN

In order of falling binding signal (Cy5 intensity):
1. hsa-mir-1233-1 loop  6.55
2. hsa-mir-4453 loop  6.54
3. hsa-mir-598 loop  6.47
4. hsa-mir-6775 loop  6.44
5. hsa-mir-1233-2 loop  6.43
6. hsa-mir-98 loop  6.41
7. hsa-mir-6839 loop  6.39
8. hsa-mir-5004 loop  6.38
9. hsa-mir-6884 loop  6.37
10. hsa-mir-6758 loop  6.35
11. hsa-mir-4524b loop  6.33
12. hsa-mir-940 loop  6.33
13. hsa-mir-4296 loop  6.29
14. hsa-mir-4730 loop  6.28
15. hsa-mir-638 loop  6.27

target: U1A (Homo sapiens) (UniProt P09012); assay: pulldown; conditions: TALON beads, 4 C
Sequence (P09012 2-282): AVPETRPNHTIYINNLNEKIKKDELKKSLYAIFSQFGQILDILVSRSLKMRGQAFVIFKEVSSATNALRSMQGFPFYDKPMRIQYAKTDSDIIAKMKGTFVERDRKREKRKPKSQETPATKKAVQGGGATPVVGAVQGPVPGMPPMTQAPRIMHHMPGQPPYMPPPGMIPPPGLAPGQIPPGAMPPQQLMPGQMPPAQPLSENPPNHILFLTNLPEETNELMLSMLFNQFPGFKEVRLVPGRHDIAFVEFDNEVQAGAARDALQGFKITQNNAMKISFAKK

In order of falling binding signal (Cy5 intensity):
1. hsa-mir-6845 loop  9.06
2. hsa-mir-3661 loop  9.05
3. hsa-mir-412 loop  8.95
4. hsa-mir-422a loop  8.78
5. hsa-mir-6796 loop  8.72
6. hsa-mir-7848 loop  8.69
7. hsa-mir-5196 loop  8.67
8. hsa-mir-1302-6 loop  8.55
9. hsa-mir-4723 loop  8.48
10. hsa-mir-493 loop  8.41
11. hsa-mir-637 loop  8.4
12. hsa-mir-378c loop  8.37
13. hsa-mir-4499 loop  8.28
14. hsa-mir-6807 loop  8.28
15. hsa-mir-4315-2 loop  8.28
16. hsa-mir-658 loop  8.27
17. hsa-mir-2682 loop  8.27
18. hsa-mir-1273h loop  8.2
